Measurements published in US20240166729A1.
Where two headings read alike, the source gives them in different places.

Assays:
[1] = target: mAb-EspB-B7
[2] = target: Peptide #49 + 50 (enteropathogenic E. coli (EPEC))
[3] = target: Peptide #50 (enteropathogenic E. coli (EPEC))
[4] = target: Peptide #49 (enteropathogenic E. coli (EPEC))
[5] = target: mAb-EspB-B7; remark: listed apart in the source

## CTSAQKASQVAEEAADAAQEC (modifications not checked) [Peptide #49 + 50]
[1]
  IC50 (read off the curve): 2 µg/mL

B1: mAb-EspB-B7 (antibody, V domains shown)
VH: EVQLLESGGGLVQPGGSLRLSCAASGFTFSHYAMNWVRQAPGKGLEWVSAINSNGDSTYYPDTVKDRFTISRDNSKNTLYLQMNSLRAEDTAVYYCARDRRAGYFDYWGQGTLVTVSS
VL: DIVLTQPPSASGTPGQRVTISCSGSRDNIGKNYVSWYQQLPGTAPKLLIYRNNQRPSGVPDRFSGSKSGTSASLAISGLRSEDEADYYCSAWDTSLNAYVFGPGTQLTVL
[2]
  EC50 (read off the curve): 0.3 µg/mL
[3]
  EC50 (read off the curve): 0.4 µg/mL
[4]
  EC50 (read off the curve): 0.5 µg/mL

## CTSAQKASQVAEEAADC (modifications not checked) [Peptide #49]
[5]
  IC50 (read off the curve): 0.8 µg/mL
